According to US20210214447A1 (SHANGHAI INSTITUTE OF MATERIA MEDICA CHINESE ACADEMY OF …, published 2021):

T1: extracellular domain of human AXL protein (AXL-ECD) (human, UniProt P30530 31-449)
T1 construct: expressed in HEK293T cells; coated on the ELISA plate; also called AXL-ECD protein; human AXL extracellular domain protein
T1 sequence: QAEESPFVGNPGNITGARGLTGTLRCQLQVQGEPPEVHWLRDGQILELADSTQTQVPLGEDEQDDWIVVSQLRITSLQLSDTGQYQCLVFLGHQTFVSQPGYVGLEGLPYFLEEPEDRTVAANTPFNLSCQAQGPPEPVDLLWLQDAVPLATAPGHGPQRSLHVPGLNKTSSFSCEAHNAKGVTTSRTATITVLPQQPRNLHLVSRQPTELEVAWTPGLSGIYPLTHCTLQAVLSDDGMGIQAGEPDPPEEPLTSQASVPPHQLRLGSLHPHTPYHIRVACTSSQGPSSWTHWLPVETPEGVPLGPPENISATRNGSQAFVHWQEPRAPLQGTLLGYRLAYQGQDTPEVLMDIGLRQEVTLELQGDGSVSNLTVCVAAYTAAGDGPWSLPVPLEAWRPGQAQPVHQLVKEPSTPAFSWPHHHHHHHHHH

T2: human AXL on the surface of tumor cells (human, UniProt P30530 26-894)
T2 construct: whole, on cells; endogenous protein of human tumor cell lines; the cell line is named under assay or readout; also called AXL on the cell surface
T2 sequence (looked up): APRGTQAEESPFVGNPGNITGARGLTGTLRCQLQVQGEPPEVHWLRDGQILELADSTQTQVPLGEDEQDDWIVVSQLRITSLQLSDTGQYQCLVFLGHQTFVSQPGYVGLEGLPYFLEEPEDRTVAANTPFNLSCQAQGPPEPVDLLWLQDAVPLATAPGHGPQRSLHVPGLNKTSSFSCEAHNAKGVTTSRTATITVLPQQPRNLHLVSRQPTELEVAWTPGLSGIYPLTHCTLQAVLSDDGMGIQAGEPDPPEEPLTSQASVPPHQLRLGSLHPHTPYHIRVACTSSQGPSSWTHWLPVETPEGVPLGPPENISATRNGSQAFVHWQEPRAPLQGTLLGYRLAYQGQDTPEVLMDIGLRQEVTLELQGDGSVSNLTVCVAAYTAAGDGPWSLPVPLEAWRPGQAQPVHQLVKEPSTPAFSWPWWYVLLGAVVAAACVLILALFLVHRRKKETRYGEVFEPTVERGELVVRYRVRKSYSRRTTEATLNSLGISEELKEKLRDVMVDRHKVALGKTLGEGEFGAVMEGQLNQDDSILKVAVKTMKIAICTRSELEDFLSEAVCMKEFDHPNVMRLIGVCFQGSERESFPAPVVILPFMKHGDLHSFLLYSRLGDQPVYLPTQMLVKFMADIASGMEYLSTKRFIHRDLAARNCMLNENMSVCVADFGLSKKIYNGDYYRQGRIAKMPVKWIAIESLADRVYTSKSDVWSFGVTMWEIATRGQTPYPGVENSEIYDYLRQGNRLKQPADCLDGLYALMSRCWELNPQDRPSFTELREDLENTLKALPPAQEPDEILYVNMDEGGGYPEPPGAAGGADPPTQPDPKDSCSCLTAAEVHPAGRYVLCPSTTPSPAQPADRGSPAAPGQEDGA

B1: Hu002-3 (antibody, V domains shown)
VH: QVQLVQSGAEVKKPGASVKVSCKASGYPFTDFYINWVKQAPGQGLEWIGWIYPGSGNTKYNEKFKGRVTLTVDTSISTAYMELSRLRSDDTAVYYCARSTGFFDYWGQGTLVTVSS
VL: EIVLTQSPATLSLSPGERATLSCSASSSIGYMYWYQQKPGQAPRLLIYLTSNLASGIPARFSGSGSGTDFTLTISSLEPEDFAVYYCQQWSSNPPTFGQGTKLEIK
notes: humanized from mAb002c; also called Hu002c-3
B2: Hu002-17 (antibody, V domains shown)
VH: QVQLVQSGAEVKKPGASVKVSCKASGYPFTDFYINWVRQAPGQGLEWMGWIYPGSGNTKYNEKFKGRVTLTVDTSISTAYMELSRLRSDDTAVYYCARSTGFFDYWGQGTLVTVSS
VL: EIVLTQSPDFQSVTPKEKVTITCSASSSIGYMYWYQQKPDQSPKLLIYLTSNLASGVPSRFSGSGSGTDYTLTINSLEAEDAATYYCQQWSSNPPTFGQGTKLEIK
notes: humanized from mAb002c; also called Hu002c-17
B3: Hu002-6 (antibody, V domains shown)
VH: QVQLVQSGAEVKKPGASVKVSCKASGYPFTDFYINWVKQAPGQGLEWIGWIYPGSGNTKYNEKFKGRVTLTVDTSISTAYMELSRLRSDDTAVYYCARSTGFFDYWGQGTLVTVSS
VL: EIVLTQSPATLSLSPGERATLSCSASSSIGYMYWYQQKPGQAPRLLIYLTSNLASGIPARFSGSGSGTDYTLTISSLEPEDFAVYYCQQWSSNPPTFGQGTKLEIK
notes: humanized from mAb002c; also called Hu002c-6
B4: Hu002-15 (antibody, V domains shown)
VH: QVQLVQSGAEVKKPGASVKVSCKASGYPFTDFYINWVKQAPGQGLEWIGWIYPGSGNTKYNEKFKGRVTLTVDTSISTAYMELSRLRSDDTAVYYCARSTGFFDYWGQGTLVTVSS
VL: EIVLTQSPDFQSVTPKEKVTITCSASSSIGYMYWYQQKPDQSPKLLIKLTSNLASGVPSRFSGSGSGTDFTLTINSLEAEDAATYYCQQWSSNPPTFGQGTKLEIK
notes: humanized from mAb002c; also called Hu002c-15
B5: Hu002-12 (antibody, V domains shown)
VH: QVQLVQSGAEVKKPGASVKVSCKASGYPFTDFYINWVKQAPGQGLEWIGWIYPGSGNTKYNEKFKGRVTLTVDTSISTAYMELSRLRSDDTAVYYCARSTGFFDYWGQGTLVTVSS
VL: QIVLTQSPATLSLSPGERATLSCSASSSIGYMYWYQQKPGQSPRSLIYLTSNLASGIPARFSGSGSGTDYTLTISSLEPEDFAVYYCQQWSSNPPTFGQGTKLEIK
notes: humanized from mAb002c; also called Hu002c-12
B6: Hu002-7 (antibody, V domains shown)
VH: QVQLVQSGAEVKKPGASVKVSCKASGYPFTDFYINWVRQAPGQGLEWMGWIYPGSGNTKYNEKFKGRVTMTRDTSISTAYMELSRLRSDDTAVYYCARSTGFFDYWGQGTLVTVSS
VL: EIVLTQSPATLSLSPGERATLSCSASSSIGYMYWYQQKPGQSPRSLIYLTSNLASGIPARFSGSGSGTDYTLTISSLEPEDFAVYYCQQWSSNPPTFGQGTKLEIK
notes: humanized from mAb002c; also called Hu002c-7
B7: Hu002-8 (antibody, V domains shown)
VH: QVQLVQSGAEVKKPGASVKVSCKASGYPFTDFYINWVRQAPGQGLEWMGWIYPGSGNTKYNEKFKGRVTLTVDTSISTAYMELSRLRSDDTAVYYCARSTGFFDYWGQGTLVTVSS
VL: EIVLTQSPATLSLSPGERATLSCSASSSIGYMYWYQQKPGQSPRSLIYLTSNLASGIPARFSGSGSGTDYTLTISSLEPEDFAVYYCQQWSSNPPTFGQGTKLEIK
notes: humanized from mAb002c; also called Hu002c-8
B8: Hu002-10 (antibody, V domains shown)
VH: QVQLVQSGAEVKKPGASVKVSCKASGYPFTDFYINWVRQAPGQGLEWMGWIYPGSGNTKYNEKFKGRVTMTRDTSISTAYMELSRLRSDDTAVYYCARSTGFFDYWGQGTLVTVSS
VL: QIVLTQSPATLSLSPGERATLSCSASSSIGYMYWYQQKPGQSPRSLIYLTSNLASGIPARFSGSGSGTDYTLTISSLEPEDFAVYYCQQWSSNPPTFGQGTKLEIK
notes: humanized from mAb002c; also called Hu002c-10
B9: Hu002-9 (antibody, V domains shown)
VH: QVQLVQSGAEVKKPGASVKVSCKASGYPFTDFYINWVKQAPGQGLEWIGWIYPGSGNTKYNEKFKGRVTLTVDTSISTAYMELSRLRSDDTAVYYCARSTGFFDYWGQGTLVTVSS
VL: EIVLTQSPATLSLSPGERATLSCSASSSIGYMYWYQQKPGQSPRSLIYLTSNLASGIPARFSGSGSGTDYTLTISSLEPEDFAVYYCQQWSSNPPTFGQGTKLEIK
notes: humanized from mAb002c; also called Hu002c-9
B10: Hu002-13 (antibody, V domains shown)
VH: QVQLVQSGAEVKKPGASVKVSCKASGYPFTDFYINWVRQAPGQGLEWMGWIYPGSGNTKYNEKFKGRVTMTRDTSISTAYMELSRLRSDDTAVYYCARSTGFFDYWGQGTLVTVSS
VL: EIVLTQSPDFQSVTPKEKVTITCSASSSIGYMYWYQQKPDQSPKLLIKLTSNLASGVPSRFSGSGSGTDFTLTINSLEAEDAATYYCQQWSSNPPTFGQGTKLEIK
notes: humanized from mAb002c; also called Hu002c-13
B11: Hu002-14 (antibody, V domains shown)
VH: QVQLVQSGAEVKKPGASVKVSCKASGYPFTDFYINWVRQAPGQGLEWMGWIYPGSGNTKYNEKFKGRVTLTVDTSISTAYMELSRLRSDDTAVYYCARSTGFFDYWGQGTLVTVSS
VL: EIVLTQSPDFQSVTPKEKVTITCSASSSIGYMYWYQQKPDQSPKLLIKLTSNLASGVPSRFSGSGSGTDFTLTINSLEAEDAATYYCQQWSSNPPTFGQGTKLEIK
notes: humanized from mAb002c; also called Hu002c-14
B12: Hu002-11 (antibody, V domains shown)
VH: QVQLVQSGAEVKKPGASVKVSCKASGYPFTDFYINWVRQAPGQGLEWMGWIYPGSGNTKYNEKFKGRVTLTVDTSISTAYMELSRLRSDDTAVYYCARSTGFFDYWGQGTLVTVSS
VL: QIVLTQSPATLSLSPGERATLSCSASSSIGYMYWYQQKPGQSPRSLIYLTSNLASGIPARFSGSGSGTDYTLTISSLEPEDFAVYYCQQWSSNPPTFGQGTKLEIK
notes: humanized from mAb002c; also called Hu002c-11

What was measured:
[1] = biological target: T1, extracellular domain of human AXL …; assay: ELISA, plate-coated AXL-ECD
Experimental: The extracellular domain of AXL protein (AXL-ECD) was diluted to […] with the coating solution, and coated onto ELISA plate with 100 μL/well at 4° C. overnight. The excess antigen was washed off. The plate was blocked with 1% BSA at room temperature for 2 h, then each monoclonal antibody in a 3-fold dilution was added at 100 µL/well. The plate was incubated at room temperature for 1 h; the unbound antibody was washed off, and appropriate concentration of anti-mouse secondary antibody labeled with horseradish peroxidase was added at 100 µL/well. The plate was incubated at room temperature for 0.5 h. The unbound secondary antibody was washed off. TMB Substrate was added and reacted for about 15 minutes. 1N HCL was added at 50 µL/well to stop the color reaction. Then the absorbance was measured at 450 nm and the obtained data was analyzed.
24 humanized antibodies in Table-6 were diluted by gradient, and their affinity to AXL-ECD protein was determined by ELISA. The experimental method was referred to Example 4.

[2] = biological target: T2, human AXL on the surface of tumor cells; assay: FACS on MDA-MB-231 cells
Experimental: Then the obtained solutions were incubated at 4° C. for 1 h, the cells were washed twice with PBS to remove unbound primary antibody, and then the target cells were incubated with 200 μL PE-labeled secondary antibody (2 μg/mL) at 4° C. for 30 min. The cells were washed twice with PBS to remove unbound secondary antibody. Finally, the cells were resuspended in 200 μL PBS, and the binding affinity of the test antibody to AXL on the cell surface was determined by a flow cytometer (FACSCalibur)
24 humanized antibodies in Table-6 were diluted by gradient, and their affinities to AXL, on the surface of MDA-MB-231 cells were determined by flow cytometer. The experimental method was referred to Example 8.

Binder | EC50 [1] | TOP (OD450) [1] | EC50 [2] | Highest MFI value (FACSCalibur) [2]
B1 | 0.048 nM | 3.6 OD450 | 0.108 nM | 277 MFI
B2 | 0.045 nM | 3.71 OD450 | 0.107 nM | 269 MFI
B3 | 0.052 nM | 3.63 OD450 | 0.101 nM | 271 MFI
B4 | 0.05 nM | 3.72 OD450 | 0.099 nM | 268 MFI
B5 | 0.045 nM | 3.73 OD450 | 0.116 nM | 261 MFI
B6 | 0.058 nM | 3.59 OD450 | 0.129 nM | 275 MFI
B7 | 0.049 nM | 3.59 OD450 | 0.138 nM | 270 MFI
B8 | 0.068 nM | 3.58 OD450 | 0.118 nM | 273 MFI
B9 | 0.067 nM | 3.62 OD450 | 0.121 nM | 268 MFI
B10 | 0.047 nM | 3.73 OD450 | 0.073 nM | 262 MFI
B11 | 0.052 nM | 3.72 OD450 | 0.094 nM | 264 MFI
B12 | 0.043 nM | 3.74 OD450 | 0.123 nM | 271 MFI
